This note sets out measurements from patent US20060073133A1 (published 2006).

Assay [1] has as its target human sialoadhesin factor-3 (SAF-3), on cells (human) (UniProt Q9Y286). Description: flow cytometry on monocyte-derived DCs cultured 7 days with mAb 12B1.
The next assay addresses SAF-2 (UniProt Q9NYZ4 17-363, limits assumed). Description: displacement immunoassay.

Sequence of human sialoadhesin factor-3 (SAF-3), on cells (human) (Q9Y286 19-467 L192P/I393V limits assumed): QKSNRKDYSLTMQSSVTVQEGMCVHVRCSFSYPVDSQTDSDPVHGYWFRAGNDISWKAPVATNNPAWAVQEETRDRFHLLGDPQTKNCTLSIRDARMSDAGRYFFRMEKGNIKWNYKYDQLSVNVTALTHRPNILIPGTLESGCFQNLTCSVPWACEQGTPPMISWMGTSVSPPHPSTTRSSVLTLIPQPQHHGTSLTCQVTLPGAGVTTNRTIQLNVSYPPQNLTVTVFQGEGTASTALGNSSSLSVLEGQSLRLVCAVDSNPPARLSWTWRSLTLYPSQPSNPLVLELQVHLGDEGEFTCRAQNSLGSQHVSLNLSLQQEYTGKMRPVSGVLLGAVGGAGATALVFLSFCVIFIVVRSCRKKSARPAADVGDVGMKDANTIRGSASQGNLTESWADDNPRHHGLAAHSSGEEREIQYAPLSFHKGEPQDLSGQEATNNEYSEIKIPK
Sequence of SAF-2 (Q9NYZ4 17-363 limits assumed): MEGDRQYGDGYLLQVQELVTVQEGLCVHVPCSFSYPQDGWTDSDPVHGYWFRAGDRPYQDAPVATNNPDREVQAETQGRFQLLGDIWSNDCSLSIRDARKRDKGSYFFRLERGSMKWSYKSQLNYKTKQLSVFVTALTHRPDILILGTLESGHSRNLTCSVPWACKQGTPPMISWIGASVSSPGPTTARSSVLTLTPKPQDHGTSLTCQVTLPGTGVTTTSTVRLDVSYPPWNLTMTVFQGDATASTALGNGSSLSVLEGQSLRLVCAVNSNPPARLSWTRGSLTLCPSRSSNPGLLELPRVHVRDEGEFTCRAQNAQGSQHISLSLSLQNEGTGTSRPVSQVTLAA

Isotype Control (antibody): the Mean Fluorescent Intensity in assay [1] worked out at 3.5 MFI.

B1: monoclonal antibody 12B1 (antibody, IgG2a, V domains shown)
VH: QIQLQQSGPELVKPGASVKVSCKASGYSFTDYNIYWVKQSHGKSLEWIGYIDPYNDDTGYNQKFKGKATLTVDKSSSTAFMHLNSLTSEDSAVYYCASEGIHWGQGTLVTVS
VL: DIVMTQSQKFMSTSVGDRVSVTCKASQNVGTNVAWFQQKPGQSPKALIYSASYRYNGVPDRFTGSGSGTDFTLTISNVQSEDLADYFCQQYNIYPYTFGGGTKLEIK
notes: also called mAb 12B1; SAF-3 mAb (clone 12B1)
Regarding B1, in the assay with SAF-2, the binding result is on record as “no binding (tested: max. displacement 5%)”.
